Paper PMC6021111, “Murine leukemia virus p12 tethers the capsid-containing pre-integration complex to chromatin by binding directly to host nucleosomes in mitosis” (PLoS Pathogens, 2018)

Columns and labels:
[1] = test system: double- and single-stranded calf thymus DNA; experiment: Pull-down with DNA-coated cellulose beads; type: binding; conditions: 293T lysates
Protocol: GST-p12 and IN-HA were expressed in 293T cells from pCAGGS/GST and pCMV4/HA-derived plasmids respectively, by transient transfection using Turbofect (Thermo Fisher Scientific). Approximately 24 h after transfection, cells were changed into fresh media and incubated overnight at 37°C. Cells were then washed and lysed in 20 mM Tris-HCl pH 8.0, 300 mM NaCl, 1 mM EDTA, 10% Glycerol, 1% Triton X-100, protease inhibitors. Lysis was facilitated by passing the lysates through a 19-gauge needle x7 and sonication, x7 pulses, 30 s ON and 30 s OFF, in an ice bath (Decon FS100). After sonication, the lysates were supplemented with 4 mM MgCl2 and 1 mM DTT, and incubated for a further 1 h at 4°C. The lysates were then clarified by centrifugation and diluted 1:3 in 20 mM Tris-HCl pH 8.0, 10% glycerol, 4 mM MgCl2 and 1 mM DTT. The lysates were then normalised based on total protein concentration using the Bradford protein assay (Bio-Rad). 0.7 ml aliquots of lysates at 0.7 mg/ml were incubated with calf thymus DNA-coated cellulose beads (100 μl/reaction of a 50% slurry) (Sigma) for 1 h at 4°C with end-over-end rotation. The beads were then washed three times in 20 mM Tris pH 8.0, 100 mM NaCl, 0.33 mM EDTA, 10% Glycerol, 0.33% Triton X-100, 4 mM MgCl2 and 1 mM DTT and re-suspended in 50 μl of x2 protein loading dye for SDS-PAGE and immunoblotting.

GST-p12_WT = experiment: SILAC-MS of proteins enriched with GST-p12_WT relative to GST; type: binding, Mo-MLV; conditions: log2(H/L) >2.58 SDs from mean
Text: To test whether GST-p12 was acting like the p12 region of Gag, we used a global proteomic approach based on stable isotope labelling by amino acids in cell culture (SILAC)-mass spectrometry (MS) to look for host proteins that interact with GST-p12 [35, 36]. A schematic diagram of the workflow is illustrated in Fig 4A. Briefly, GST, GST-p12_mut14 and GST-p12_WT were transiently-expressed in 293T cells cultured in light (R0/K0), medium (R6/K4) and heavy (R10/K8) SILAC media, respectively. Next, lysates of nocodazole treated transfected cells were prepared, normalised and used for parallel pull-down assays with glutathione-sepharose beads. The eluates from the beads were then pooled in a 1:1:1 ratio and subjected to LC-MS/MS analysis. The experiment was performed using biological replicates to test reproducibility of the mass-spec hits. The pull-down assays for this experiment were performed using mitotic cell lysates to facilitate identification of any potential chromatin interactions that were previously missed.
After removal of obvious contaminants (e.g. keratin) and non-quantified hits, 948 and 879 proteins were identified in replicates 1 and 2 (R1 and R2) of the experiment respectively (the false discovery rate (FDR) was set at 5%). To select proteins enriched in the heavy-labelled (H) GST-p12_WT sample relative to the light-labelled (L) GST sample, we compared the log2(H/L) silac ratios of the mass-spectrometry hits. When plotted as a frequency distribution, the log2(H/L) ratios of each replicate fitted well to a normal distribution curve (R^2 ≥ 0.98), allowing the mean and standard deviation to be accurately estimated (Fig 4B). In this experiment, contaminants/non-specifically bound cellular proteins were assumed to cluster around the mean of the distribution. […] Twenty one such proteins were identified in R1 and 22 identified in R2 (Fig 4B Venn diagram). […] These proteins were then ranked based on normalised abundance in the group. In mass-spectrometry analysis, larger proteins are in general assigned higher scores. Therefore, to control for protein size, we divided the number of peptide spectral matches identified for each protein with its length and then normalised the values across the group (Fig 4C and 4D). When ranked this way, the clathrin heavy chain (CLTC), clathrin interactor 1 (CLINT1) and NEDD4-like E3 ubiquitin ligase (WWP2) were identified as the top three hits. […] The function of clathrin in MLV infection is unclear. […] Thus, clathrin binding may be relevant to the early stages of MLV replication and should be investigated further.
(§1) For SILAC-MS experiments, 293T cells were grown is media containing light (R0K0, ^12C-Arginine and ^12C-Lysine), medium (R6K4, ^13C-Arginine and Lysine-4,4,5,5-d4) or heavy (R10K8, ^13C+^15N-Arginine and ^13C+^15N-Lysine) versions of L-Arginine and L-Lysine amino acids (Pierce) for a minimum of 6 doublings before transient expression of GST-p12 proteins. After performing the glutathione-sepharose pull-down assays equivalent volumes of the beads eluates were pooled and submitted to the Bristol University Proteomics Facility for RP nano-LC-MS/MS analysis. This analysis was performed on an LTQ-Orbitrap Velos mass spectrometer in line with a Dionex Ultimate 3000 nanoHPLC system as described in [53].
Supplementary file ppat.1007117.s005.xlsx: S1 Table Results from the first SILAC-MS analysis. GST, Mo-MLV GST-p12_mut14 or GST-p12_WT were transiently-expressed in 293T cells cultured in light (R0/K0), medium (R6/K4) and heavy (R10/K8) SILAC media, respectively. Mitotic cell lysates were subsequently used for glutathione-sepharose bead pull-down assays. Bead eluates were pooled in a 1:1:1 ratio and then analysed by LC-MS/MS. […] (XLSX) Click here for additional data file.

[2] = test system: cellular proteins of mitotic 293T cells; experiment: SILAC-MS of GST-p12_WT relative to GST-p12_mut14; type: binding; conditions: log2(H/M) >2.58 SDs from mean in both replicates
Protocol: as §1
Supplementary file ppat.1007117.s002.tif: S2 Fig SILAC results showing no significant difference in protein complexes of Mo-MLV GST-p12_mut14 compared to GST-p12_WT. (Links to Fig 4). GST, Mo-MLV GST-p12_mut14 or GST-p12_WT were transiently-expressed in 293T cells cultured in light (L), medium (M) or heavy (H) SILAC media, respectively. GST-protein complexes were precipitated from mitotic cell lysates and analysed by LC-MS/MS. (A) To identify proteins enriched in the GST-p12_WT (H) sample relative to the GST-p12_mut14 (M) sample, log2(H/M) silac ratios of each set of MS hits (FDR <5%) from replicates (R1 and R2) were plotted as a frequency distribution. […]

B1: GST-p12_WT: N-terminally GST-tagged Mo-MLV p12 (protein)
chain: PALTPSLGAKPKPQVLSDSGGPLIDLLTEDPPPYRDPRPPPSDRDGNGGEATPAGEAPDPSPMASRLRGRREPPVADSTTSQAF
modifications: left off: GST, N-terminal, kept
notes: N-terminally GST-tagged Mo-MLV p12
binding to DNA-coated beads [1]: no binding to DNA was observed
number of proteins significantly enriched vs GST in both replicates (GST-p12_WT; R1 and R2): seven
number of proteins significantly enriched vs GST (GST-p12_WT; replicate 1): Twenty one
number of proteins significantly enriched vs GST (GST-p12_WT; replicate 2): 22 proteins
proteins significantly enriched vs GST-p12_mut14 [2]: no proteins that passed the criteria for significant enrichment
